This experiment concerns the target NRP-1 recombinant chimeric protein ( (recombinant human/rat NRP-1 …, UniProt O14786 22-856)). The experiment can be described thus: ELISA; competition with biotinylated VEGF-165.

The results in this text go back to PMC8659110 (2021).

Primed or numbered codes have the meaning given here. Where no end group is shown, it is not given here. Cy5 = Cy5 fluorophore (fluorescent dye); NODAGA′ = chelator

Sequence of NRP-1 recombinant chimeric protein ( (O14786 22-856, change not shown): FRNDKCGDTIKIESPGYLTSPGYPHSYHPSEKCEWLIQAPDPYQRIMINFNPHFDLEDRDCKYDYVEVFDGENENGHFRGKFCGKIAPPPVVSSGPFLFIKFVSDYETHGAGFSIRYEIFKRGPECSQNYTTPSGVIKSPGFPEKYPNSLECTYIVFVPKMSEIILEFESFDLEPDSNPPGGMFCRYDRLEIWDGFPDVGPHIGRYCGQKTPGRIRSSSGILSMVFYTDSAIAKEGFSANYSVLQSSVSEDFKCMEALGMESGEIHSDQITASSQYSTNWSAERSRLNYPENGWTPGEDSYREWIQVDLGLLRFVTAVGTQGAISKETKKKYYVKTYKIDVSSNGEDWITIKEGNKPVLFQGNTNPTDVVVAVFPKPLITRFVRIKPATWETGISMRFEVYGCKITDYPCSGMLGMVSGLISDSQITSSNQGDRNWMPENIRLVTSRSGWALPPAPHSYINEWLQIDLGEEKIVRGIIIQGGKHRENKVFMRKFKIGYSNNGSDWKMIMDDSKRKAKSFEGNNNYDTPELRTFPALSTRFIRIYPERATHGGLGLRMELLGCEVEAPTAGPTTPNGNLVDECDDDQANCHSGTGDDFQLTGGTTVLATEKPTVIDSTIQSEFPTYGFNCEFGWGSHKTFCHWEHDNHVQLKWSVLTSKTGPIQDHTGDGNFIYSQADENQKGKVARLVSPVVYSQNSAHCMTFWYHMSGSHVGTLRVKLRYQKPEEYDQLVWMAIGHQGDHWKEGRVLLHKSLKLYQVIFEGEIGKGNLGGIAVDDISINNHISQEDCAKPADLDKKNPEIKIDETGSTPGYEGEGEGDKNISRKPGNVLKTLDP

One may read the IC50 as the concentration that inhibits the measured activity by half. Turning to {NODAGA′}-K(Cy5)DKPPR (also: NODAGA complexed with natGa) [^natGa-NODAGA-K(Cy5)DKPPR], the IC50 was found to be 100 nM. The same measure for KDKPPR [KDKPPR peptide]: 2000 nM.
